Assay results reported in the RNAGym collection of RNA variant scans (doi:10.7554/elife.80360).

B1: Twister Ribozyme (parent)
chain: AACACUGCCAAUGCCGGUCCCAAGCCCGGAUAAAAGUGGAGGGGGCGG

Variants of: B1
Assay: self-cleavage, relative activity (ratio to wild type); higher = more cleavage; co-transcriptional
For C8U A34U, the self-cleavage was 0.308.
For U12G G13U, the self-cleavage was 0.836.
A10G C26G showed a self-cleavage of 0.354.
In the case of A10C U37G, the self-cleavage is reported as 0.692.
With G24U G29U the self-cleavage was 0.103.
In the case of A4G A35U, the self-cleavage is reported as 0.844.
G13C C21A showed a self-cleavage of 0.0599.
Work on G13U G44U yielded a self-cleavage of 0.428.
With A22G G47C the self-cleavage was 0.128.
In the case of A11U G39C, the self-cleavage is reported as 0.149.
In the case of C5G A30C, the self-cleavage is reported as 0.259.
C19A G42A gave a self-cleavage of 0.135.
G7A G17C gave a self-cleavage of 0.0766.
A1G G43A gave a self-cleavage of 0.176.
Work on C5U G45U yielded a self-cleavage of 0.423.
Variant C14U G45A has a self-cleavage of 0.999.
Variant A22G A34C has a self-cleavage of 0.0775.
Work on U18A C19A yielded a self-cleavage of 0.0671.
For U6A A11G, the self-cleavage was 0.897.
Variant G39U G45C has a self-cleavage of 0.183.
Variant U12C A40C has a self-cleavage of 0.177.
A4U C26A gave a self-cleavage of 0.0524.
Work on G7U G36U yielded a self-cleavage of 0.0615.
A11C C27G showed a self-cleavage of 0.0803.
Variant A22G C25G has a self-cleavage of 0.0838.
C27A A35G gave a self-cleavage of 0.0986.
For G17A G47C, the self-cleavage was 0.224.
In the case of G24U C27G, the self-cleavage is reported as 0.0792.
In the case of A2C C19G, the self-cleavage is reported as 0.0832.
In the case of U6C G48U, the self-cleavage is reported as 0.607.
Variant G16C G48U has a self-cleavage of 0.414.
Variant C9A U37A has a self-cleavage of 0.233.
For A10G A34G, the self-cleavage was 0.888.
Work on U6C A32U yielded a self-cleavage of 0.488.
In the case of A1C G44A, the self-cleavage is reported as 0.176.
G24A A40G gave a self-cleavage of 0.0838.
In the case of C19U G45C, the self-cleavage is reported as 0.38.
For C19U G45A, the self-cleavage was 0.915.
For A2U U12G, the self-cleavage was 0.557.
A10G C19G gave a self-cleavage of 0.677.
C3U G44C gave a self-cleavage of 0.446.
With A2U U6A the self-cleavage was 0.185.
In the case of U37A C46U, the self-cleavage is reported as 0.886.
Work on G17A C19U yielded a self-cleavage of 0.281.
For C25A G38U, the self-cleavage was 0.0853.
For G7A G41C, the self-cleavage was 0.143.
In the case of C14G G45A, the self-cleavage is reported as 0.113.
C20U G41U showed a self-cleavage of 0.141.
Work on G28U G29C yielded a self-cleavage of 0.928.
With G7C G47A the self-cleavage was 0.0829.
C15U A32U gave a self-cleavage of 0.958.
A2U G36C gave a self-cleavage of 0.129.
Variant A10U G29C has a self-cleavage of 0.617.
For A4U A10U, the self-cleavage was 0.0773.
Variant A1G A22C has a self-cleavage of 0.325.
With A11U G44A the self-cleavage was 0.977.
With A30G C46U the self-cleavage was 0.779.
C9G G39U showed a self-cleavage of 0.147.
In the case of G38A C46A, the self-cleavage is reported as 0.875.
For A34U G38C, the self-cleavage was 0.638.
In the case of G13A U18A, the self-cleavage is reported as 0.0831.
Work on U18C G38C yielded a self-cleavage of 0.523.
U12G G17C gave a self-cleavage of 0.0934.
With A35U G44A the self-cleavage was 0.843.
Variant C8U G43C has a self-cleavage of 0.101.
In the case of U6A A34G, the self-cleavage is reported as 0.731.
C20A U31C showed a self-cleavage of 0.117.
With A32C C46A the self-cleavage was 0.837.
Work on A10U G17U yielded a self-cleavage of 0.302.
With C27A U37C the self-cleavage was 0.136.
With C15G G17U the self-cleavage was 0.319.
Variant A1G A23G has a self-cleavage of 0.213.
C5G G28A showed a self-cleavage of 0.354.
C27A G44A showed a self-cleavage of 0.648.
Work on C3A C25G yielded a self-cleavage of 0.12.
In the case of U12C G44C, the self-cleavage is reported as 0.932.
C20G C26U showed a self-cleavage of 0.0527.
In the case of C21G C27A, the self-cleavage is reported as 0.0855.
U12C C15U gave a self-cleavage of 1.09.
In the case of C9U A40G, the self-cleavage is reported as 0.14.
For C8A G36U, the self-cleavage was 0.108.
With C14G G24A the self-cleavage was 0.0254.
For A10U C25U, the self-cleavage was 0.731.
G45C G47C gave a self-cleavage of 0.427.
Work on C8A C21G yielded a self-cleavage of 0.076.
For A35U G41U, the self-cleavage was 0.693.
C5G G47C gave a self-cleavage of 0.269.
Work on C5G G48C yielded a self-cleavage of 0.77.
C15U G43C gave a self-cleavage of 0.125.
Variant U6G A32C has a self-cleavage of 0.419.
G29C G48U showed a self-cleavage of 0.642.
In the case of A2C A4U, the self-cleavage is reported as 0.0426.
For U6A C26U, the self-cleavage was 0.237.
Work on C21U A30C yielded a self-cleavage of 0.0806.
With G7C A23C the self-cleavage was 0.0613.
Variant A10G G28U has a self-cleavage of 1.04.
C9U U37C showed a self-cleavage of 0.122.
Work on A35G G47A yielded a self-cleavage of 0.706.
In the case of G28C G39C, the self-cleavage is reported as 0.159.
A11U G24A showed a self-cleavage of 0.108.
With G16C C27A the self-cleavage was 0.684.
A4C G16U showed a self-cleavage of 0.107.
For G28C G45C, the self-cleavage was 0.155.
C3G C5U gave a self-cleavage of 0.309.
With C21U G36A the self-cleavage was 0.0555.
U12G G39A showed a self-cleavage of 0.477.
U37G G44U showed a self-cleavage of 0.805.
U37C G48A showed a self-cleavage of 0.639.
Work on C27G G28C yielded a self-cleavage of 0.216.
Work on C21A G48A yielded a self-cleavage of 0.107.
C3G G36C gave a self-cleavage of 0.0943.
With G17A U18G the self-cleavage was 0.123.
Work on A10C U18A yielded a self-cleavage of 0.455.
For A33C C46A, the self-cleavage was 0.934.
Work on G16A A22U yielded a self-cleavage of 0.631.
Variant A34U G48U has a self-cleavage of 0.811.
For G16U A33C, the self-cleavage was 0.66.
For G36C U37A, the self-cleavage was 0.107.
C14G G28U gave a self-cleavage of 0.157.
Variant A10U C26A has a self-cleavage of 0.607.
In the case of G17C U37G, the self-cleavage is reported as 0.0835.
For A4C C19U, the self-cleavage was 0.0705.
C5G U12G showed a self-cleavage of 0.768.
Work on U12A C21U yielded a self-cleavage of 0.164.
G13U G29C gave a self-cleavage of 0.555.
C15U C25U gave a self-cleavage of 0.914.
Work on A30G A34C yielded a self-cleavage of 0.497.
A2G U6A showed a self-cleavage of 0.192.
In the case of A32G G45U, the self-cleavage is reported as 0.668.
For G7C G39A, the self-cleavage was 0.0735.
With C5A C25U the self-cleavage was 0.236.
For A10G G38U, the self-cleavage was 0.91.
With G13A G45A the self-cleavage was 0.724.
In the case of G16C C20U, the self-cleavage is reported as 0.489.
G7U G47A gave a self-cleavage of 0.0641.
For G29A G42A, the self-cleavage was 0.284.
For G29A G42U, the self-cleavage was 0.323.
Variant C9A C26G has a self-cleavage of 0.0708.
With C21A G39U the self-cleavage was 0.0973.
Work on C5A C14U yielded a self-cleavage of 0.668.
With G17C G42C the self-cleavage was 0.11.
Work on A4G C19U yielded a self-cleavage of 0.887.
For A33G A34C, the self-cleavage was 0.108.
In the case of G36U G44U, the self-cleavage is reported as 0.355.
Work on A2U G39U yielded a self-cleavage of 0.188.
Variant U6C C25A has a self-cleavage of 0.108.
For G38A G47C, the self-cleavage was 0.522.
For C26A G39A, the self-cleavage was 0.107.
For A1U A2G, the self-cleavage was 0.0622.
In the case of C25A G28U, the self-cleavage is reported as 0.146.
G38U G43C gave a self-cleavage of 0.126.
Work on G44A G48U yielded a self-cleavage of 1.08.
Work on G17U C19G yielded a self-cleavage of 0.111.
Variant U6A G29C has a self-cleavage of 0.335.
Variant C3A U6C has a self-cleavage of 0.0414.
For A11C A32C, the self-cleavage was 0.769.
Variant C27U G36U has a self-cleavage of 0.158.
In the case of A2U C46G, the self-cleavage is reported as 0.53.
With A2U C8G the self-cleavage was 0.0705.
In the case of C5G A32U, the self-cleavage is reported as 0.515.
Work on G24A G47A yielded a self-cleavage of 0.096.
A34U G43C showed a self-cleavage of 0.186.
C8G G44A showed a self-cleavage of 0.513.
With C8G G28C the self-cleavage was 0.083.
Variant C27A A34C has a self-cleavage of 0.0922.
C21G G48U showed a self-cleavage of 0.0902.
Work on A2G C19U yielded a self-cleavage of 0.155.
